{
  "source": "the nanobody polyreactivity screen of Harvey et al. (2022)",
  "data": [
    {"experiment": "yeast display, Sf9 membrane polyspecificity reagent, FACS + sequencing; frameworks hold sequencing errors", "how_it_was_run": "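Nanobodies came from a synthetic yeast display library in Saccharomyces cerevisiae BJ5465, induced with galactose for 36–48 hours and stained for 1 hour at 4 °C with 10% biotinylated, detergent-solubilized Sf9 membrane reagent. Cells were enriched on streptavidin microbeads and then FACS-sorted, with low and high (top ~1%) gates set on anti-HA fluorescence for expression and streptavidin fluorescence for reagent binding. Each polyreactivity label reflects the gate a clone came from. Genes were amplified by colony PCR, sequenced by MiSeq 2 × 250 and filtered by CDR length.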", "values": [
      {"sequence": "QVQLVESGGGLVQAGGSLRLSCAASGSIFTGYAMGWYRQAPGKERELVAAISRSGGRTYYADSVKGRFTISRDNAKYTVYLQMNRLKPEDTAVYYCNSVVSPWNQGYYYWGQGTQVTVSS", "polyreactivity (PSR sort gate)": "high polyreactivity"},
      {"sequence": "QVQLVESGGGLVQAGGSLRLSCAASGSTILAYALGWYRPAPGKERELVAAIRRGGTSTYSADSLKGRFTISRDKAKKTVYLQINSLQPEDTAVYYCNKAYITKRGVSGSNDYWGQGTQVTVSS", "polyreactivity (PSR sort gate)": "low polyreactivity"},
      {"sequence": "QVQLVESGGGLVQAGGSLRISCAASGSIFRRNAMGWYRQAPGKERELVATITSDGSTDYADSVKGRFTISRDNAKYTVYLQMNRLKPEDTVYYCAAGRTPYWHATFGYWGQGTQVTVSS", "polyreactivity (PSR sort gate)": "low polyreactivity"},
      {"sequence": "QVQLVESGGGLVQAGGSLRLSCAASGGTSIYNDMGWYRQAPGKERELVAAISWSGGSTYYADSVKGRFTISRDNAKNTVYLQMNSLKPEDTAVYYCATQGFYKDYSRYDYWGQVTQVTVSS", "polyreactivity (PSR sort gate)": "low polyreactivity"},
      {"sequence": "QVQLVESGGGLVQAGGSLRLSCAASGSIFARYAMGWYRQAPGKERELVATISYRGSSTYYADSVKGRFTISRDNAKNTVYLQMNSLKPEDTAVYYCAARTYRRIYAYYRFDYWGQGTQVTVSS", "polyreactivity (PSR sort gate)": "low polyreactivity"},
      {"sequence": "QVQLEDAGGGLVQAGGSLRLSCAASGRIIGWYTIGRYRQAPGKERELVATSSSSGASTYYADSVKGRFTISRDNAKNSVYFQMNSLKPEDTGVYYCAAQYYPYSFAHRYGYWGQGSQVTVSS", "polyreactivity (PSR sort gate)": "high polyreactivity"},
      {"sequence": "QVQLVESGGGLVQAGGRLRLRCAASGSTFGYYAMGWYRQAPGKERELVAAISRSGGITYYADSVKGRFTISRDNAKNTVYLQMNSLKPEDTAVYYCAADRNRYTGEDDSWGEGTQVTVSS", "polyreactivity (PSR sort gate)": "low polyreactivity"},
      {"sequence": "QVHLVESGGGLVQAGCSLRLSCAASGSIFYRYAMGWYRQEPGKECELVAAIRTRGGTYYADSVKGRFTISRDNAKNTVYLQIKSLKPEDTAVYYCNAGYGTWYLWYEYWGQGTQVTVSS", "polyreactivity (PSR sort gate)": "high polyreactivity"},
      {"sequence": "QVQLVESGGGLVQAGGSLRLSCASSGYTFTIYAMGWYRQAPGKERELVAAITGRGGRTNYADSVKGRFTISRDNAKNTVYLQIYRLIPVDTAVYYCNAVTKVVYHGPYGYDYWGQGTQVTVSS", "polyreactivity (PSR sort gate)": "high polyreactivity"},
      {"sequence": "QVQLVESGGGLVQAGGSLRLSCAASGSTIWSNAMVWYRQAPGKERELVAVISGGTSTNYADSVKGRFTISRDNAKNTVYLQMNSLKPEDTAVFYCAADWGSYLILINDTDMDYWGQGTQVTVSS", "polyreactivity (PSR sort gate)": "low polyreactivity"},
      {"sequence": "QVQLVESGGGLVQAGGSLRLSCAASGSIFGTYAMGWYRQAPGKERELVAAITGSGGRTYYADSVKGRFTISRDNAKNTVYLQLNSLKPEDTAVYYCNKVVYVRSYPPRYDYWGQGTQVTVSS", "polyreactivity (PSR sort gate)": "high polyreactivity"},
      {"sequence": "QVQLVESGGGLVQAGGSLRLSCAASGSIFDINAMGWYRQAPGKERELVAAISTTSGRTYYADSVKGRFTISRDNAKNTVFLQMNSLKPEDTAVYYCNVSKYVSSYRRGLFNYWGQGTQVTVSS", "polyreactivity (PSR sort gate)": "low polyreactivity"},
      {"sequence": "QVQLVESGGGLVQAGGSLRLSCAASGSIFGPNAMGRSRQAPGKERELVAAISWVGGSTYYADSVKGRFTISGDIAKNTVYLQMNSLKPEDTAVYYCNASGYHDTALRYDYWGQGTQVTVSS", "polyreactivity (PSR sort gate)": "low polyreactivity"},
      {"sequence": "QVQLVESGGGLVQAGGSLRLSCAASGRIFYFYALGWYRQAPGKERDLVAAINIGGSTNYADSVKGRFTISRDNAKNTVYLQMNSLNPEDTAVYYCNAEAYSRSDYYRYDYWGQGTQVTVSS", "polyreactivity (PSR sort gate)": "low polyreactivity"},
      {"sequence": "QVHLVDSGGGLVQAGGSLRLSCAASGRIIYGNAMGWYRQSPGKERELVAAISSGTSTNYADSVKGRFTISRDNAKNTVYLQMNSLKPEDTAVYYCAAGSYSRYIYSLYFDFDYWGQGTQVTVSS", "polyreactivity (PSR sort gate)": "low polyreactivity"},
      {"sequence": "QVQLVESGGGLVQAGGSLRLSCADSGSIFAYYAMGWYRQAPGKERELVADITSSGGITYYADSVKGRFTISRDNAKNTVYLQMNSLKPEDTAVYYCNADSLAIVGGSYPYDYWGQGTQVTVSS", "polyreactivity (PSR sort gate)": "low polyreactivity"},
      {"sequence": "QVQLVESGGGLVQAGGSLRLSCAASGRTFGYNAMGWYRQAPGKERELVAAITRGGSTYYADSVKGRFTISRDNAKNTVYLQMNSLKPEDTAVYYCAAKSYWSGYFVGYEYWGQGTQVTVSS", "polyreactivity (PSR sort gate)": "high polyreactivity"},
      {"sequence": "QVHLQESGGGLMQAGGSQRLSSAASGSISYYSDMGWYRQAPGKEREFVAGIGYGTTTNYADSVKGRFTTSRDNGKNTVYLQMSSMKPEDTAVYYCAAYQGNGYEFYYWGQGTQVTVRS", "polyreactivity (PSR sort gate)": "low polyreactivity"},
      {"sequence": "QVQLVVSGGGLVQAGGSLRLSCAASGSIFPYYTMGWYRQAPGKEWELVAAISGSGTSTYYADSVKGRFTISRDNAKNTVYLQMNSLKPEDTAVYYCAKRFRYGYVNYYYWGQGTQVTVSS", "polyreactivity (PSR sort gate)": "low polyreactivity"},
      {"sequence": "QVQLVESGGGLVQAGGSLRLSCAASGRTFTNYAMGWYRQAPGKERELVASISNAGSTNYADSVKGRFTISRDNAKNTVYLQMNSLNPEDTAVYYCAADFFAGTQRTFDYWGQGTQVTVSS", "polyreactivity (PSR sort gate)": "high polyreactivity"},
      {"sequence": "QVQLVESGGGLVQAGGSLRLTCAASGNIFRAYAMGWYRQAPGKERELVAAISWNAGTTYYADSVKGRFTISRDHAKNTVYLQMHSLKPEDTAVYYCAASKLLRRGLCKYYKATYSYDYWGQGTQVTVSS", "polyreactivity (PSR sort gate)": "high polyreactivity"},
      {"sequence": "QVQLVESGGGLVQAGGSLRLNCAASGRIFVGNTMGWDRQAPGKERELVAAITVRGGSTYYADSVKGRFTISRDNAKNTVYLQMNSLKPEDTAVYYCAARRRIFPPRFGYWGQGTQVTVSS", "polyreactivity (PSR sort gate)": "high polyreactivity"},
      {"sequence": "QVQLVESGGGLVQAGGSLRLSCAASGFIFANYAMGWDRQAPGKERELVAAISTSGSSTYYADSVKGRFTISRDNAKNTVYLQMNSLKPKDTAVYYCRTSGKHRLYISSYRFEYWGQGTQVTVSS", "polyreactivity (PSR sort gate)": "high polyreactivity"},
      {"sequence": "QVQLVESGGGLVQAGGSLRLSCAASGFTYFGYAMGWYRQAPGKERELVAAISTIDGDTYYADSVKGRFTISRDNAKNTVYLQMNSLKPEDTAVYYCAADDYIDGDDYWGQGTQVTVSS", "polyreactivity (PSR sort gate)": "low polyreactivity"},
      {"sequence": "QVQLVESGGGLVQAGGSLRLSCAASGIIFSIYAMGLYRQAPGKERELVAVISRSSGSTYYADSVKGRFTISRYNAKNTVYLQMNSLKPEDTAVYYCAARKNRAYGYWGQGTQVTVSS", "polyreactivity (PSR sort gate)": "high polyreactivity"},
      {"sequence": "QVQLVESGGGLVQAGGSLRLSCAASGYTFTIYAMGWYRQAPGKERELVASISIDGSTYYADSVKGRFTISRDNAKNTVYLQMNSLKPEDTAVYYCAADYYYYTPGFDYWGQGTQVTVSS", "polyreactivity (PSR sort gate)": "low polyreactivity"},
      {"sequence": "QVQLVESGGALVQAGGSLRLSCAASGSTFSYNAMGWYSQAPGKERELVAAISSRGSSTYYADSVKGRFTISRDNAKNTVYFQINSLKPEDTAVYDCAARSYWGGLRYDYWGQGTQVTVSS", "polyreactivity (PSR sort gate)": "high polyreactivity"},
      {"sequence": "QVQLVYSGGGLVQAGGSLRLSCAASGISFSQYAMGWYRQAPGKERELVASISSGGRTNYADSVKGRFTISRDNAKNTVYLQLNSLTPEDTAVYYCAAEQWGWYWYDYWGQGTQVTVSS", "polyreactivity (PSR sort gate)": "high polyreactivity"},
      {"sequence": "QVQLVDSGGGLVQAGGSLRLSCDASGSTFRGTVMGWYRQAPGKERELVAGIYSGGSTYYADSVKGRFTISRDNAKNTVYLQMNSLKPEDTAVYYCAAYRRQHIIYNDWGQGTQVTVSS", "polyreactivity (PSR sort gate)": "high polyreactivity"},
      {"sequence": "QVQLVESGGGLVQAGGSLRLSCAASGSTFTHYALGWYRQAPGKEMELVAAITRRGGSTYYADSVKGRFTISRDYAKNTVYLQMNRLKPEDTAVYYCAARSRYDQEYDYWGQATQVTVSS", "polyreactivity (PSR sort gate)": "high polyreactivity"},
      {"sequence": "QVQLVESGGGLVQAAGSLRLICAASGSTFEGNVMGWYRPAPGKERELVAAMSVRGGSTYYADSVKGRFTISRDNAKNTVYLQMNSLKQEDTEDYYCAKKYYRPFWEGDYWGQGTQVTVSS", "polyreactivity (PSR sort gate)": "low polyreactivity"},
      {"sequence": "QVQLVESGGGLVQAGGSLRLSCAASGFIFYLYAMGWSRQAPGKERELVASINVSGASTRYADSVKGRFTISRDNAKNTVYLQMNSLKPEDTAVYYCAAPSRYDYWGQGTQVTVSS", "polyreactivity (PSR sort gate)": "low polyreactivity"},
      {"sequence": "QVQLVESGGGLVQAGGSLPLSSAASGRTFYPNAMGWYRQAPGNEREFVARISDSGGSTYYADSVKGRFTISRDNAKNTVYLQMNSLKPEDTAVYYCAADYGDPRVKEYDYWGQGTQVTVSS", "polyreactivity (PSR sort gate)": "low polyreactivity"},
      {"sequence": "QVQLVESGGGLVQAGGSLRLSCAASGRTFRANAMGWYRQAPGKERELVAAISKRGGNTYYADSVKGRFTISRDNAKYTVYLQMNSLKPEDTAVYYCAAHFIGRDYDYWGQGTQVTVSS", "polyreactivity (PSR sort gate)": "high polyreactivity"},
      {"sequence": "QVQLVESAGGLVQAGGSLSLSCAASGSMFNKYAMGWYRQAPGKERELVAAISVSGTRTYYADSVKGRFTISRDNAKNTVYLQMNSLKPEDTAVYYCATKFFRTAYEYWGQGTQVTVSS", "polyreactivity (PSR sort gate)": "high polyreactivity"},
      {"sequence": "QVQLVESGGGLVQAGGSLRLSCAASGSTLSINAMGGYRQAAGKERELVAGITYSGGSEYYADSVKGRFSISRDNAKNNVYLQMNSMKPEDTAVYYCNKASGVYYGHLDYWRQGTQVTVSS", "polyreactivity (PSR sort gate)": "low polyreactivity"},
      {"sequence": "QVQLVESGGGVVQAGGSLRLSCAASGSTFDVYAMGWYRQAPGKERELVAAITSGGTTNYADSVKGRFTNSRDNAKNTVYLQMNSLKPEDTAVYYCAADSPWGGGYFVLYNYWGQGTQVTVSS", "polyreactivity (PSR sort gate)": "low polyreactivity"},
      {"sequence": "QVQLEESGGGLVQAGGSLRLSCAASGSTIHDNDMGWYRQAPGKERELVAAISWSGGSTTYADSVKGRFTISRDNAKNTVYLQMNSLKPEDTAVYYCAADWYYWGFIFDYWGQGTQVTVSS", "polyreactivity (PSR sort gate)": "high polyreactivity"},
      {"sequence": "QVQLVESGGGLVQAGGSLRLSCAASGFIYGRNAMGWYRQAPGKERELVAAINWRGGSTYYADSVKGRFTISRDNAKNTVYLQMNSLKAEDTAVYYCAARAPYRYGYDYWGQGTQVTLSS", "polyreactivity (PSR sort gate)": "high polyreactivity"},
      {"sequence": "QVQLVESGGGLVQAGGSLRLSCAASGLIFSRNAMGRYRQAPGKERELVAAITTGGSTYYADSVKGRFTISRDNAKNTVYLQMNSLKPEDTAVYYCAAAPGYIYEYWGQGTQVTVSS", "polyreactivity (PSR sort gate)": "low polyreactivity"},
      {"sequence": "QVQLVESGGGLVQAGGSLRLSCAASGSNFLSYAMGWYRQAPGKERELVAAITGSGGNTYYADSVKGRFTISRDNAKHTVYLQMKSLKPEDTAVYYCSAVATRSNYWRGFYYWGQGTKVTVSS", "polyreactivity (PSR sort gate)": "high polyreactivity"}
    ]}
  ]
}
